Measured values: paper PMC13393415, “The bacterial SOS response promotes the expression of the transposase encoded by ISCR mobile genetic elements”
Numbering of substitutions follows the chain as printed.

T1: His6-LexA (Escherichia coli) (UniProt P0A7C2)
T1 sequence: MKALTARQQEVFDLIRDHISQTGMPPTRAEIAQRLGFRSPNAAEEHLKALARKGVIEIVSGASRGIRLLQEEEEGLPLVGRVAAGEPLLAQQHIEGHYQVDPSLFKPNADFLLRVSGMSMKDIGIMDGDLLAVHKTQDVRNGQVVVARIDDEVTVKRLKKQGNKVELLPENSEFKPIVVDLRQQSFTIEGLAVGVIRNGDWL

B1: Prcr8 (dsDNA)
DNA 1: GGCGACGGTTCGGGCCTTGTGCTTTGCGTACCCAAACAATCGCCGCAGAATACTGTGCATTTGTACAGCATTCATGTCAGCCACTTCCAAGCCCAAGCTCTACAACCCACGCCACCCCGA
DNA 2: TCGGGGTGGCGTGGGTTGTAGAGCTTGGGCTTGGAAGTGGCTGACATGAATGCTGTACAAATGCACAGTATTCTGCGGCGATTGTTTGGGTACGCAAAGCACAAGGCCCGAACCGTCGCC
B2: Prcr8 L (dsDNA)
DNA 1: B1 DNA 1 with C66A, A67C, G68T
DNA 2: B1 DNA 2 with C53A, T54G, G55T
modifications: LexA box mutated (terminal ACAG to AACT)

Experiments:
[1] = target: T1, His6-LexA (Escherichia coli); assay: EMSA; details: 10 mM HEPES pH 8, 10 mM Tris-HCl pH 8, 50 mM KCl, 1 mM EDTA; on ice 20 min; 40 ng DNA, 0-600 ng LexA in 10 uL; 6% native Tris-glycine PAGE, SYBR Green
[2] = target: His6-LexA (Escherichia coli, UniProt P0A7C2 1-202); assay: EMSA; 10 mM HEPES pH 8, 10 mM Tris-HCl pH 8, 50 mM KCl, 1 mM EDTA; on ice 20 min; 40 ng DNA, 0-600 ng LexA in 10 uL; 6% native Tris-glycine PAGE, SYBR Green; details: protein: recombinant; tags: N-terminal His6; blunt

Row | Molecule | binding [1] | binding result [2]
1 | CCGGAATTCGGGAGTGACGGGCACTGGCTGGCAATGTCTAGCAACGGCAGGCATTTCGGCTGAGGGTAAAAGAACTTTCCGCTAAGCGATAGACTGTATGTAAACACAGTATTGCAAGGACGCGGAACATGCCTCATGTGGCGGCCAGGACGGCCAGCCGGGATCGGGATACTGGTCGTTACCAGAGCCACCGACCCGAGCAAACCCTT (double strand) [Prcr2] | binds | –
2 | CAACCGGTAGTGGCTGATAACAACTCGTGAGGGCTATTGCGGGTTAAGCATTTAGCGATGTCTAGGGCCAGACTGGACGTCTGAACGCAAGCCGCTGATACTGTACATAACCACAGTATCAGCGGAGGATACCCATGTCGCTGGCAAGGAACGCCACGGCGAGTCAATCGCCCACTCAAACAAACGGTTACGAACGCCACCAACCCGACCAGACGCTG (double strand) [Prcr1] | binds | –
3 | B1 | – | binds
4 | B2 | – | no binding
